Assay results as given in patent publication CN117736324A.

Experiments:
[1] = target: T1, 人Siglec-15抗原 (Siglec-15蛋白胞外段) (human) (UniProt Q6ZMC9); assay: ELISA, relative binding activity of HA-I purified by the method of Example 27; reference not given
T1 sequence (looked up): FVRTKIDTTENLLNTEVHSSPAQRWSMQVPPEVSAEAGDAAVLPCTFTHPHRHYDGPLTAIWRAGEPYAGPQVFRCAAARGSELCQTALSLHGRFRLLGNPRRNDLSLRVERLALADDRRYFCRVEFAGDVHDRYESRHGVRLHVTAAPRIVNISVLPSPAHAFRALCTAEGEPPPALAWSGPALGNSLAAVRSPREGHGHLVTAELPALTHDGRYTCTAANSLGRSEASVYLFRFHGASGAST

[2] = target: T1, 人Siglec-15抗原 (Siglec-15蛋白胞外段) (human); assay: ELISA, relative binding activity of HA-I purified by the method of Example 31; reference not given
[3] = target: T1, 人Siglec-15抗原 (Siglec-15蛋白胞外段) (human); assay: ELISA, relative binding activity of HA-I purified by the method of Example 24; reference not given
[4] = target: T1, 人Siglec-15抗原 (Siglec-15蛋白胞外段) (human); assay: ELISA, relative binding activity of HA-I purified by the method of Example 32; reference not given
[5] = target: T1, 人Siglec-15抗原 (Siglec-15蛋白胞外段) (human); assay: ELISA, relative binding activity of HA-I purified by the method of Example 28; reference not given
[6] = target: T1, 人Siglec-15抗原 (Siglec-15蛋白胞外段) (human); assay: ELISA, relative binding activity of HA-I purified by the method of Example 29; reference not given
[7] = target: T1, 人Siglec-15抗原 (Siglec-15蛋白胞外段) (human); assay: ELISA, relative binding activity of HA-I purified by the method of Example 26; reference not given
[8] = target: T1, 人Siglec-15抗原 (Siglec-15蛋白胞外段) (human); assay: ELISA, relative binding activity of HA-I purified by the method of Example 33; reference not given
[9] = target: T1, 人Siglec-15抗原 (Siglec-15蛋白胞外段) (human); assay: ELISA, relative binding activity of HA-I purified by the method of Example 30; reference not given

结合活性(%) [1]: 88%
结合活性(%) [2]: 79%
结合活性(%) [3]: 100%
结合活性(%) [4]: 86%
结合活性(%) [5]: 90%
结合活性(%) [6]: 78%
结合活性(%) [7]: 112%
结合活性(%) [8]: 83%
结合活性(%) [9]: 105%
B1: 抗Siglec-15单克隆抗体HA-I (人源化抗体分子, human IgG1/Ck) (antibody, V domains shown)
VH: QVQLVQSGAEVKKPGASVKVSCKASGYTFTDYNMFWVRQAPGQRLEWIGYIYPDNGGTGYNQNFKSKATLTVDNSASTAYMELSSLRSEDTAVYYCARSEYDYFDYWGQGTLVTVSS
VL: DIVLTQSPSSLSASVGDRVTITCRASQDISNYLNWYQQKPGKAVKLLIYYTSRLHSGVPSRFSGSGSGTDYTFTISSLQPEDIATYFCQQGNTLPLTFGQGTKVELKR
